# Ends that are not written are not given here.
# Key:
# human CD52 [1] = target: T1, human CD52 (human, UniProt P31358 25-36, ends and bridges not checked); experiment: flow cytometry, MFI ratio grade (sample over background), allogeneic B cells
# T1 construct: whole, on cells; also called CD52 antigen
# T1 chain (looked up): GQNDTSQTSSPS
# human CD52 [2] = target: T1, human CD52; experiment: flow cytometry, MFI ratio grade (sample over background), third party B cells
binder,measurement,setting,value
"alemtuzumab (humanized anti-human CD52 mAb with human IgG1 kappa constant domains) (antibody, V domains shown) VH: QVQLQESGPGLVRPSQTLSLTCTVSGFTFTDFYMNWVRQPPGRGLEWIGFIRDKAKGYTTEYNPSVKGRVTMLVDTSKNQFSLRLSSVTAADTAVYYCAREGHTAAPFDYWGQGSLVTVSS VL: DIQMTQSPSSLSASVGDRVTITCKASQNIDKYLNWYQQKPGKAPKLLIYNTNNLQTGVPSRFSGSGSGTDFTFTISSLQPEDIATYYCLQHISRPRTFGQGTKVEIKR",MFI ratio (sample over background),human CD52 [1],> 100 ratio
same,MFI ratio (sample over background),human CD52 [2],> 100 ratio

# From patent US20120121504A1 (UNITED STATES OF AMERICA AS REPRESENTED BY THE SECRETARY …, published 2012)
